{
  "source": "patent US20140105926A1",
  "about": "(GlaxoSmithKline, published 2014)",
  "biological_target": "T1, Vitronectin from human plasma (SIGMA-ALDRICH) (human, UniProt P04004 20-478)",
  "T1 construct": "mature; Bought protein from human plasma. 'mature' is inferred from the plasma origin",
  "T1 sequence (P04004 20-478)": "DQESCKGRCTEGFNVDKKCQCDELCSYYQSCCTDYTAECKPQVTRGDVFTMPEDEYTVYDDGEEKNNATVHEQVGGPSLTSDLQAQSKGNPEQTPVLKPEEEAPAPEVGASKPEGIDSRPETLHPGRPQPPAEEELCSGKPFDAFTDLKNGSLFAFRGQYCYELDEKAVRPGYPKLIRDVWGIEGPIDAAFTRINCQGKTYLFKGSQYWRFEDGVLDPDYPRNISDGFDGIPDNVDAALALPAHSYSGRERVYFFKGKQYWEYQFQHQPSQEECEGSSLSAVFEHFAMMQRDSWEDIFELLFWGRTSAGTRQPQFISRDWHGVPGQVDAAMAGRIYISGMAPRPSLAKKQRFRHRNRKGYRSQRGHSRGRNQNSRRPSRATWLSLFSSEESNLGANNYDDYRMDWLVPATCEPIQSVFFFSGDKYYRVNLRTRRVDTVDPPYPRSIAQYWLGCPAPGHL",
  "experiment": "ELISA: plate coated with fusion protein (10 ug/ml), human plasma vitronectin titrated from 10 ug/ml, detected with peroxidase sheep anti-human vitronectin",
  "data": [
    {"binder": "purified LVL317 PE-PilA fusion protein (other, also called PE-PilA fusion non His-tagged protein) QIQKAEQNDVKLAPPTDVRSGYIRLVKNVNYYIDSESIWVDNQEPQIVHFDAVVNLDKGLYVYPEPKRYARSVRQYKILNCANYHLTQVRTDFYDEFWGQGLRAAPKKQKKHTLSLTPDTTLYNAAQIICANYGEAFSVDKKGGTKKAAVSELLQASAPYKADVELCVYSTNETTNCTGGKNGIAADITTAKGYVKSVTTSNGAITVKGDGTLANMEYILQATGNAATGVTWTTTCKGTDASLFPANFCGSVTQ", "values": [
      {"measurement": "binding result", "result": "binds"}
    ]}
  ]
}
